T1: survivin peptide on HLA-A*02:01 (human)
T1 peptide: LMLGEFLKL


Target: T1, survivin peptide on HLA-A*02:01
Assay: multimer staining
Experimental: Up to 1×10⁶ of cells were incubated in 50 μl volume for 25 min with 4 μg PE-labeled multimer on ice in the dark. For sorting, up to 5×10⁶ cells were incubated with 12 μg multimer in 100 μl PBS+0.5% human serum. CD8-APC antibody was then added at 1/50 for an additional 25 min. After staining cells were washed twice and either fixed in FACS buffer with 1% paraformaldehyde and analysed by flow cytometry using a FACSCalibur (BD Biosciences) or diluted in PBS+0.5% human serum with PI for sorting. 20-50×10⁶ total cells per priming culture were stained for sorting. PI-negative cells were gated and CD8⁺multimer⁺ T cells were sorted on a FACSAria cell sorter (BD Biosciences) with a 70 μm nozzle, at a rate of 15,000 events/s. […] Pentamer staining was performed according to the manufacturer's instructions.

Binder | binding result
SW-Surv-72 (TCR, V domains shown) Valpha: AQKITQTQPGMFVQEKEAVTLDCTYDTSDQSYGLFWYKQPSSGEMIFLIYQGSYDEQNATEGRYSLNFQKARKSANLVISASQLGDSAMYFCAMREGGGYNKLIFGAGTRLAVHP Vbeta: SQTIHQWPATLVQPVGSPLSLECTVEGTSNPNLYWYRQAAGRGLQLLFYSVGIGQISSEVPQNLSASRPQDRQFILSSKKLLLSDSGFYLCAGQDLNTEAFFGQGTRLTVV | recognises
SW-Surv-66 (TCR, V domains shown) Valpha: GENVEQHPSTLSVQEGDSAVIKCTYSDSASNYFPWYKQELGKRPQLIIDIRSNVGEKKDQRIAVTLNKTAKHFSLHITETQPEDSAVYFCAARAGNMLTFGGGTRLMVKP Vbeta: SQTIHQWPATLVQPVGSPLSLECTVEGTSNPNLYWYRQAAGRGLQLLFYSVGIGQISSEVPQNLSASRPQDRQFILSSKKLLLSDSGFYLCAWGTGLALYEQYFGPGTRLTVT | recognises
SW-Surv-22 (TCR, V domains shown) Valpha: EDQVTQSPEALRLQEGESSSLNCSYTVSGLRGLFWYRQDPGKGPEFLFTLYSAGEEKEKERLKATLTKKESFLHITAPKPEDSATYLCAVQAYSNSGYALNFGKGTSLLVTP Vbeta: SAVISQKPSRDICQRGTSLTIQCQVDSQVTMMFWYRQQPGQSLTLIATANQGSEATYESGFVIDKFPISRPNLTFSTLTVSNMSPEDSSIYLCSVEDSYGYTFGSGTRLTVV | recognises

Reference: patent US20120128704A1 (published 2012)
